The subject of this data set is CCCCCCCCCCCCCC(=O)OC[C@H](COP(=O)([O-])OCC[N+](C)(C)C)OC(=O)CCC(=O)Oc1ccc([N+](=O)[O-])cc1. The experiment in a line: purified protein. The following applies: chromogenic substrate; mean of duplicate experiments.

Turning to “rL-PAF-AH (recombinant His-tag-L-PAF-AH, LA2144) (Leptospira interrogans serovar Lai str. 56601)”, the Km came out at 0.61 mM, the kcat was 6.61 s⁻¹ and the kcat/Km is 10800 M⁻¹ s⁻¹.

The values above are taken from publication PMC2615213, “Serum Activity of Platelet-Activating Factor Acetylhydrolase Is a Potential Clinical Marker for Leptospirosis Pulmonary Hemorrhage” (PLoS ONE, 2009).
